Legend:
[1] = molecular target: T1, AT4 receptor (Oryctolagus cuniculus, UniProt G1SFU4); assay: 125I-AIV binding and competition, rabbit heart P2 membranes; conditions: competition of 0.5 nM 125I-AIV, 120 min, 37° C.
T1 sequence (G1SFU4 1-1025): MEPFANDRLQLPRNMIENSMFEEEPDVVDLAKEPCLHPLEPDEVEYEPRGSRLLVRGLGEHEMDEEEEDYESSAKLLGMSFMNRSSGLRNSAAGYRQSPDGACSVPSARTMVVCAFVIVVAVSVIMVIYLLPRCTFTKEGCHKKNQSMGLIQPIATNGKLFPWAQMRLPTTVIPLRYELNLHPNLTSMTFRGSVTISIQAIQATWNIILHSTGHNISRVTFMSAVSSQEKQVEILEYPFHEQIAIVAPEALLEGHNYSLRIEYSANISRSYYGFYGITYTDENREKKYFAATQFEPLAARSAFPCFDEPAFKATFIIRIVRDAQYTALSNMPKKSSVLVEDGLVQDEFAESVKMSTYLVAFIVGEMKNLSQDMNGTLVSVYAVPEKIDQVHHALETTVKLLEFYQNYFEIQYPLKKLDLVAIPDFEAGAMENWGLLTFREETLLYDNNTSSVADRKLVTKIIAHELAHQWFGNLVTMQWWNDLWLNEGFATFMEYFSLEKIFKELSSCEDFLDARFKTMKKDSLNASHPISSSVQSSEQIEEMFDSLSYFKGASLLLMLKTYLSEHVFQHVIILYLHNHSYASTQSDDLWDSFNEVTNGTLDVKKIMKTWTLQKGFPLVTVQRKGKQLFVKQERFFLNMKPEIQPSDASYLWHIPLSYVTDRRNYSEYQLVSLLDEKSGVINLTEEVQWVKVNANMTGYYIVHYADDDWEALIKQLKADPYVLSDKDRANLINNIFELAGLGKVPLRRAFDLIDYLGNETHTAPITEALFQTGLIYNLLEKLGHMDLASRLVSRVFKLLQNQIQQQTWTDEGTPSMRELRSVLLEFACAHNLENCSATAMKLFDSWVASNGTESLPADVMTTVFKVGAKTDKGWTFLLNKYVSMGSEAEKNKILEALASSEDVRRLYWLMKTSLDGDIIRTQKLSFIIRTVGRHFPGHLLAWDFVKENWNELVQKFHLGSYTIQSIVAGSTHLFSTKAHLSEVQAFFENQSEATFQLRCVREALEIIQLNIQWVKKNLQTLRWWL

[2] = molecular target: T2, AT4 receptor (Bos taurus, UniProt F1N1Q8); assay: 125I-AIV binding and competition, coronary venular endothelial cell (CVEC) membranes; design: species or system bovine; conditions: competition of 0.5 nM 125I-AIV; read-out: Ki
T2 sequence (F1N1Q8 1-1022): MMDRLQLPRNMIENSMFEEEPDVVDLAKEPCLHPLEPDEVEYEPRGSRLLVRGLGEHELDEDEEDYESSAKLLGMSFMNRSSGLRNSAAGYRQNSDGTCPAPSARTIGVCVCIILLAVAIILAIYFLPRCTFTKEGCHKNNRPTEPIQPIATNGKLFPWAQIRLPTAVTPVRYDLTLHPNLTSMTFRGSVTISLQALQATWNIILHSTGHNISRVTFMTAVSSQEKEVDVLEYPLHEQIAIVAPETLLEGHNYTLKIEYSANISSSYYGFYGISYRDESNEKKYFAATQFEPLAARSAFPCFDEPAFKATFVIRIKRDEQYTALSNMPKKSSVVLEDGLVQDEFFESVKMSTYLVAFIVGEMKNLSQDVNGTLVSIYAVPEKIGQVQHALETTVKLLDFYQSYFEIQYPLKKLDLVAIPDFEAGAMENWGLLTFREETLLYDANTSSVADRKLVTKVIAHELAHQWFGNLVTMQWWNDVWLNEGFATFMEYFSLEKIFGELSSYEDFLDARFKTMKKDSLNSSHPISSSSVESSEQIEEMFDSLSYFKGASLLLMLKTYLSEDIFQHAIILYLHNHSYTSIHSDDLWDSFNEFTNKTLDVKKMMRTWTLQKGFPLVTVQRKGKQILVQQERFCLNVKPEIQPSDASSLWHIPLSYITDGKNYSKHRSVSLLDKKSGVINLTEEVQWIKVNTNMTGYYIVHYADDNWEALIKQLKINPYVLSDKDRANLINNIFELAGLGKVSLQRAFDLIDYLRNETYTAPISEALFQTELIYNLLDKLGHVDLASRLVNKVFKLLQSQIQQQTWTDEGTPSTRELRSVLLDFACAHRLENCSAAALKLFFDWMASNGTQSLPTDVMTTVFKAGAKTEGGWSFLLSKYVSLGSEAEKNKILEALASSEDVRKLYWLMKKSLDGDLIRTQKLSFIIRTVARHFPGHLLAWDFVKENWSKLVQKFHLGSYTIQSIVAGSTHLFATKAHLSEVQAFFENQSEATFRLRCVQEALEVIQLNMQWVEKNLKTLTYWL

[3] = molecular target: T3, AT1 receptor (AII receptor) (Bos taurus, UniProt P25104); assay type: binding, bovine; conditions: 37° C., 2 h, HPLC
T3 construct: from tissue; host or cells: bovine adrenal cortex membranes
T3 sequence (P25104 1-359): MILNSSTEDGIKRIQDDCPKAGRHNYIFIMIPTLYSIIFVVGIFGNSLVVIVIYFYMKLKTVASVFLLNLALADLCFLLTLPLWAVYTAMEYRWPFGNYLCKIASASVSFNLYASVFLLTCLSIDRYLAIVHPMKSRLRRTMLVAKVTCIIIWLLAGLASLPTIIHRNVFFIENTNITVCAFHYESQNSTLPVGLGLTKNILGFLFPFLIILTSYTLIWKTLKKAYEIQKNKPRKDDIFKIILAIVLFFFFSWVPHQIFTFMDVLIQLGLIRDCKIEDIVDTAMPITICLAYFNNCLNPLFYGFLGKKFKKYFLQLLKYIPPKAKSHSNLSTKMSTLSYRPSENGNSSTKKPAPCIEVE

[4] = in vivo; cited from earlier work

Asp1 Arg2 Val3 Tyr4 Ile5 His6 Pro7 Phe8 (DRVYIHPF) [AII]
Ki [1]: > 1000 nM | Ki [2]: 194 ± 44.5 nM | overall hydrolysis under conditions of the assay [3]: less than 2% | metabolized during transit through the kidney [4]: 72-76%

From patent publication US5854388A, “Angiotensin IV peptides and receptor” (Washington State University Research Foundation, priority 1994, dated 1998)
